In paper PMC8005859 (2021) one finds Kd data, which are given here for 1 molecule.

The test concerns the target SARS-CoV-2 S trimer (SARS-CoV-2, UniProt P0DTC2). Kind of test: SPR. A general note: In SPR one partner is held on a chip, and binding of the other changes the refractive index at the surface.

“And” between values parts separate entries of the source, which are not always exact repeats. Identical values can stand only once.

B1: P17 (antibody, V domains shown)
VH: QQLVESGGGVVQPGRSLRLSCAASGFTFSSYAMHWVRQAPGKGLEWVAVISYDGSNKYYADSVKGRFTISRDNSKNTLYLQMNSLRAEDTAVYYCARHATLMNNKDIWGQGTLVTVSS
VL: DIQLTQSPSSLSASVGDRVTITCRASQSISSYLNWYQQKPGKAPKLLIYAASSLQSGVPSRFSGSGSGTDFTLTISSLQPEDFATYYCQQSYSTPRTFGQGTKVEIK
For the molecule B1, the dissociation constant Kd is 0.14 nM and 0.08 nM and 0.06 nM.

In general, Kd refers to the concentration at which binding is half-saturated. Lower therefore signals higher affinity.
